The record followed here is IntAct's records for PubMed 9647694.

To fix the notation:
B1: ATP-sensitive inward rectifier potassium channel 10 (Mus musculus), Q9JM63 (parent)
chain: MTSVAKVYYSQTTQTESRPLVAPGIRRRRVLTKDGRSNVRMEHIADKRFLYLKDLWTTFIDMQWRYKLLLFSATFAGTWFLFGVVWYLVAVAHGDLLELGPPANHTPCVVQVHTLTGAFLFSLESQTTIGYGFRYISEECPLAIVLLIAQLVLTTILEIFITGTFLAKIARPKKRAETIRFSQHAVVASHNGKPCLMIRVANMRKSLLIGCQVTGKLLQTHQTKEGENIRLNQVNVTFQVDTASDSPFLILPLTFYHVVDETSPLKDLPLRSGEGDFELVLILSGTVESTSATCQVRTSYLPEEILWGYEFTPAISLSASGKYIADFSLFDQVVKVASPSGLRDSTVRYGDPEKLKLEESLREQAEKEGSALSVRISNV

In the assay the parent is B1. Conditions: with inadl_mouse Patj.
Consider MTSVAKVYYSQTTQTESRPLVAPGIRRRRVLTKDGRSNVRMEHIADKRFLYLKDLWTTFIDMQWRYKLLLFSATFAGTWFLFGVVWYLVAVAHGDLLELGPPANHTPCVVQVHTLTGAFLFSLESQTTIGYGFRYISEECPLAIVLLIAQLVLTTILEIFITGTFLAKIARPKKRAETIRFSQHAVVASHNGKPCLMIRVANMRKSLLIGCQVTGKLLQTHQTKEGENIRLNQVNVTFQVDTASDSPFLILPLTFYHVVDETSPLKDLPLRSGEGDFELVLILSGTVESTSATCQVRTSYLPEEILWGYEFTPAISLSASGKYIADFSLFDQVVKVASPSGLRDSTVRYGDPEKLKLEESLREQAEKEGSALSVRISNA [V379A], for which the “effect of a mutation on the interaction” value is reported as “disrupting interaction”.
Take MTSVAKVYYSQTTQTESRPLVAPGIRRRRVLTKDGRSNVRMEHIADKRFLYLKDLWTTFIDMQWRYKLLLFSATFAGTWFLFGVVWYLVAVAHGDLLELGPPANHTPCVVQVHTLTGAFLFSLESQTTIGYGFRYISEECPLAIVLLIAQLVLTTILEIFITGTFLAKIARPKKRAETIRFSQHAVVASHNGKPCLMIRVANMRKSLLIGCQVTGKLLQTHQTKEGENIRLNQVNVTFQVDTASDSPFLILPLTFYHVVDETSPLKDLPLRSGEGDFELVLILSGTVESTSATCQVRTSYLPEEILWGYEFTPAISLSASGKYIADFSLFDQVVKVASPSGLRDSTVRYGDPEKLKLEESLREQAEKEGSALSVRIGNV [S377G]: the “effect of a mutation on the interaction” value is reported as “disrupting interaction”.
